For this assay, the target named is apo-hTf-Sepharose 4B (human apo-transferrin coupled to Sepharose 4B) (human, UniProt P02787 20-698, coupled to Sepharose 4B). As to the kind of experiment: affinity chromatography of solubilized membranes on apo-hTf-Sepharose 4B.

This note sets out measurements from patent publication US6440701 (AVENTIS PASTEUR, dated 2002).

apo-hTf-Sepharose 4B (human apo-transferrin coupled to Sepharose 4B), sequence (P02787 20-698 limits assumed): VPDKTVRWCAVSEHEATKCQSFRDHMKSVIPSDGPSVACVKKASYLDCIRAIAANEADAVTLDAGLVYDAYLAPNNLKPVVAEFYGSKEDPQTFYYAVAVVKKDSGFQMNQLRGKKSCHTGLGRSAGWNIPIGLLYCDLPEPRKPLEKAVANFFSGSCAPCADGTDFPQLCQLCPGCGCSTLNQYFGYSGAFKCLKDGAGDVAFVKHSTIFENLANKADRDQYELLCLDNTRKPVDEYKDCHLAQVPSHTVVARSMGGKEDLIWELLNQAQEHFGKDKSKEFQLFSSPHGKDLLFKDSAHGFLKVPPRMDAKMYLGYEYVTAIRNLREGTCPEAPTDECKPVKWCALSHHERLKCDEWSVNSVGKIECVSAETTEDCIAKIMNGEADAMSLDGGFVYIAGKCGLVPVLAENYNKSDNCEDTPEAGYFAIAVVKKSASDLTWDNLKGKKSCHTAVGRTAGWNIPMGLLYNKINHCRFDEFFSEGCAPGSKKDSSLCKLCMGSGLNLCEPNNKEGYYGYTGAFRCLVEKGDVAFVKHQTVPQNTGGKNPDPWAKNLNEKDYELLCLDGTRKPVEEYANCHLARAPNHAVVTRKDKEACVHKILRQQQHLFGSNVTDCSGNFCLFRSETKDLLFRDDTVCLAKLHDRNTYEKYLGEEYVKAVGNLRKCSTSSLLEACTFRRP

B1: Native Tbp2 (4223) (receptor)
chain: CGGSGGSNPPAPTPIPNASGSGNTGNTGNAGGTDNTANAGNTGGTNSGTGSANTPEPKYQDVPTEKNEKDKVSSIQEPAMGYGMALSKINLHNRQDTPLDEKNIITLDGKKQVAEGKKSPLPFSLDVENKLLDGYIAKMNVADKNAIGDRIKKGNKEISDEELAKQIKEAVRKSHEFQQVLSSLENKIFHSNDGTTKATTRDLKYVDYGYYLANDGNYLTVKTDKLWNLGPVGGVFYNGTTTAKELPTQDAVKYKGHWDFMTDVANRRNRFSEVKENSQAGWYYGASSKDEYNRLLTKEDSAPDGHSGEYGHSSEFTVNFKEKKLTGKLFSNLQDRHKGNVTKTERYDIDANIHGNRFRGSATASNKNDTSKHPFTSDANNRLEGGFYGPKGEELAGKFLTNDNKLFGVFGAKRESKAEEKTEAILDAYALGTFNTSNATTFTPFTEKQLDNFGNAKKLVLGSTVIDLVPTDATKNEFTKDKPESATNEAGETLMVNDEVSVKTYGKNFEYLKFGELSIGGSHSVFLQGERTATTGEKAVPTTGTAKYLGNWVGYITGKDTGTGTGKSFTDAQDVADFDIDFGNKSVSGKLITKGRQDPVFSITGQIAGNGWTGTASTTKADAGGYKIDSSSTGKSIVIKDANVTGGFYGPNANEMGGSFTHNADDSKASVVFGTKRQQEVK
Regarding B1, the binding result was “binds”.
